US20090238814A1

What was measured:
[1] = molecular target: wheat germ agglutinin (Triticum vulgaris, WGA)-agarose CL-4B (Triticum vulgaris) (UniProt P10968); test: WGA-agarose lectin affinity chromatography after neuraminidase digestion of the enzyme
[2] = molecular target: wheat germ agglutinin (Triticum vulgaris, WGA)-agarose CL-4B (Triticum vulgaris) (UniProt P10968); test: WGA-agarose lectin affinity chromatography after neuraminidase digestion, eluted with 0.1 M GlcNAc
[3] = molecular target: wheat germ agglutinin (Triticum vulgaris, WGA)-agarose CL-4B (Triticum vulgaris) (UniProt P10968); test: WGA-agarose lectin affinity chromatography after neuraminidase digestion, eluted with 0.5 M GlcNAc
[4] = molecular target: wheat germ agglutinin (Triticum vulgaris, WGA)-agarose CL-4B (Triticum vulgaris) (UniProt P10968); test: WGA-agarose lectin affinity chromatography, eluted with 0.1 M GlcNAc
[5] = molecular target: wheat germ agglutinin (Triticum vulgaris, WGA)-agarose CL-4B (Triticum vulgaris) (UniProt P10968); test: WGA-agarose lectin affinity chromatography, eluted with 0.5 M GlcNAc
[6] = molecular target: wheat germ agglutinin (Triticum vulgaris, WGA)-agarose CL-4B (Triticum vulgaris) (UniProt P10968); test: WGA-agarose lectin affinity chromatography, enzyme activity of fractions
[7] = molecular target: concanavalin A (Canavalia ensiformis, ConA)-sepharose 4B (Canavalia ensiformis) (UniProt P02866); test: ConA-sepharose lectin affinity chromatography, enzyme activity of fractions
[8] = molecular target: concanavalin A (Canavalia ensiformis, ConA)-sepharose 4B (Canavalia ensiformis) (UniProt P02866); test: ConA-sepharose lectin affinity chromatography, eluted with 0.5 M alpha-methyl-D-mannopyranoside
[9] = molecular target: concanavalin A (Canavalia ensiformis, ConA)-sepharose 4B (Canavalia ensiformis) (UniProt P02866); test: ConA-sepharose lectin affinity chromatography, eluted with 0.01 M alpha-methyl-D-mannopyranoside
[10] = molecular target: wheat germ agglutinin (Triticum vulgaris, WGA)-agarose CL-4B (Triticum vulgaris) (UniProt P10968); test: WGA-agarose lectin affinity chromatography

Sequence of UniProt P10968 (P10968 27-197): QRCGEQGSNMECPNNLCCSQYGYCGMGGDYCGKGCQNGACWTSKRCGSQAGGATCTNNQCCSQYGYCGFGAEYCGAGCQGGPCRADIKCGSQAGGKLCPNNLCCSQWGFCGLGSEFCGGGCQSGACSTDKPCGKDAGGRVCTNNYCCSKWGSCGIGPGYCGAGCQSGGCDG

| percent of relative activity in Unbound fraction [1] [%] | percent of relative activity in Weakly Bound fraction [2] [%] | percent of relative activity in Strongly Bound fraction [3] [%] | percent of relative activity in Weakly Bound fraction [4] [%] | percent of relative activity in Strongly Bound fraction [5] [%] | percent of relative activity in Unbound fraction [6] [%] | percent of relative activity in Unbound fraction [7] [%] | percent of relative activity in Strongly Bound fraction [8] [%] | percent of relative activity in Weakly Bound fraction [9] [%] | percent strongly bound to the WGA column [10] [%] | Substance |
| --- | --- | --- | --- | --- | --- | --- | --- | --- | --- | --- |
| 0 | 9 | 91 |  |  |  |  |  |  |  | anchorless rhTNSALP after neuraminidase digestion (from UniProt P05186 18-505) (enzyme) |
| 4 | 4 | 92 |  |  |  |  |  |  |  | CD8-TNSALP after neuraminidase digestion (from UniProt P05186 18-505) (enzyme) |

The next lines start with the substance.

| Substance | percent of relative activity in Unbound fraction [1] [%] | percent of relative activity in Weakly Bound fraction [2] [%] | percent of relative activity in Strongly Bound fraction [3] [%] | percent of relative activity in Weakly Bound fraction [4] [%] | percent of relative activity in Strongly Bound fraction [5] [%] | percent of relative activity in Unbound fraction [6] [%] | percent of relative activity in Unbound fraction [7] [%] | percent of relative activity in Strongly Bound fraction [8] [%] | percent of relative activity in Weakly Bound fraction [9] [%] | percent strongly bound to the WGA column [10] [%] |
| --- | --- | --- | --- | --- | --- | --- | --- | --- | --- | --- |
| CD6-TNSALP after neuraminidase digestion (from UniProt P05186 18-505) (enzyme) | 2 | 11 | 86 |  |  |  |  |  |  |  |
| CD8-TNSALP (human TNSALP anchorless at the C-terminal tagged with a stretch of eight L-Asp) (from UniProt P05186 18-505) (enzyme) |  |  |  | 23 | 76 | 1 | 2 | 39 | 59 |  |
| CD6-TNSALP (human TNSALP anchorless at the C-terminal tagged with a stretch of six L-Asp) (from UniProt P05186 18-505) (enzyme) |  |  |  | 32 | 65 | 3 | 4 | 36 | 60 |  |
| anchorless recombinant human TNSALP (human tissue-nonspecific alkaline phosphatase anchorless at the C-terminal) (from UniProt P05186 18-505) (enzyme) |  |  |  | 66 | 33 | 0 | 3 | 38 | 59 | 34 |
